For orientation: EC50 means the concentration at which the effect is half-maximal. One may read the Kd as the constant that tells how readily two partners part at equilibrium.

These results are taken from patent publication US20230272086A1 (CHIA TAI TIANQING PHARMACEUTICAL GROUP, published 2023).

For experiment [1], the target named is T1, human ST2 (hST2, Interleukin-1 receptor-like 1 isoform A) on cells (human, UniProt Q01638 19-556).
T1 sequence: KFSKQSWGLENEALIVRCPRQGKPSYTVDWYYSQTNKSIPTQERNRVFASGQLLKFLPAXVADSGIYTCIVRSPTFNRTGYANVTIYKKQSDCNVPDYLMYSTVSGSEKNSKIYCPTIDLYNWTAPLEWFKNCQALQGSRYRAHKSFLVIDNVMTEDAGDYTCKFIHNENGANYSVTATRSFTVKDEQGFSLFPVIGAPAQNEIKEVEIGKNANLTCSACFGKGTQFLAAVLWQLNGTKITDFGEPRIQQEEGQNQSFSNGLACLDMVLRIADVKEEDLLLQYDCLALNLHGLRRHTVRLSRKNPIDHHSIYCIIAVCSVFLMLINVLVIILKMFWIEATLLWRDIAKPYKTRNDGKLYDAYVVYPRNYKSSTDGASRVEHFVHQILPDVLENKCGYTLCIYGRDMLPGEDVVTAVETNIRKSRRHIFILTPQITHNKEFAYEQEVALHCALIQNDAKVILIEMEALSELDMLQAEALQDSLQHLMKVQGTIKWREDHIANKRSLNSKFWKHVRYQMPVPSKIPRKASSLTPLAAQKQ
The experiment is described as follows: cell-based or functional assay.

For experiment [2], the target named is T1, human ST2 (hST2, Interleukin-1 …). Kind of experiment: flow cytometry on HEK293T-hST2-NFκB-Luciferase cells. How it is done: 3 × 10⁵ HEK293T-hST2-NFκB-Luciferase or HEK293T-Cyno-ST2-NFκB-Luciferase cells were added to a 96-well culture plate. Serially diluted anti-ST2 antibodies (serially diluted 4-fold from an initial concentration of 667 nM to 8 concentrations in binding assays with the HEK293T-hST2-NFκB-Luciferase cells; serially diluted 4-fold from an initial concentration of 400 nM to 8 concentrations in binding assays with the HEK293T-Cyno-ST2-NFκB-Luciferase cells) were added to the cell suspensions. After the plate was incubated at room temperature for 60 min, the cells were washed 3 times with PBS. […] The cells were washed 3 times with PBS and resuspended in 100 µ1L of PBS, and then the fluorescence signals were analyzed and detected using a flow cytometer (BD, Accuri C6). The binding capacity of the anti-ST2 antibodies to hST2 and cyno-ST2 on the cell line surfaces was measured in terms of the mean fluorescence intensity (MFI) of staining. The data were analyzed using GraphPad Prism5, and the EC₅₀ values were calculated. The EC₅₀ values for the binding of the anti-ST2 chimeric antibodies to hST2 and Cyno-ST2 at the cellular level are shown in Table 8 and FIGS. 7-8.
(§1) The humanized antibodies hz31C81-1.1 (the amino acid sequence of the heavy chain set forth in SEQ ID NO: 75 and the amino acid sequence of the light chain set forth in SEQ ID NO: 81) and hz31C8-1.2 (the amino acid sequence of the heavy chain set forth in SEQ ID NO: 77 and the amino acid sequence of the light chain set forth in SEQ ID NO: 81) were subjected to affinity, binding, blocking and cell function analyses using the methods described in Example 4, Example 5, Example 6, Example 7, Example 8, Example 9 and Example 10. In the present disclosure, “hz” and “xi” denote humanized antibodies and chimeric antibodies, respectively; for example, “hz31C81-1.1” and “hz31C81-1.2” represent humanized 31C81-1.1 and 31C81-1.2 antibodies, and “xi31C8” represents a chimeric 31C8 antibody.

Experiment [3] concerns the target T2, cynomolgus monkey ST2 antigen (Cyno-ST2-his, Sino biological, 90915-C08H) (cynomolgus monkey, UniProt Q01638 19-328 (human entry)).
T2 construct: Bought protein; not shown: his tag
T2 chain: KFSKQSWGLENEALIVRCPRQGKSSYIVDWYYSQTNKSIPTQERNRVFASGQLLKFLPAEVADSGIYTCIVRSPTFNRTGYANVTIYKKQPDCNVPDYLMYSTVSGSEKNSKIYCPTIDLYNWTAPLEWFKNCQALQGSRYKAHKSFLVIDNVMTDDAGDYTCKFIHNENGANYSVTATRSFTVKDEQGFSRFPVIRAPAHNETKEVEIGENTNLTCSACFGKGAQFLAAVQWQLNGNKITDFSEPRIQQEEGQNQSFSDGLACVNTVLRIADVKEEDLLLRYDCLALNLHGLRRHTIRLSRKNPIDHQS
Kind of experiment: SPR (Biacore T200), Cyno-ST2-his captured by anti-his antibody on CM5, antibody as analyte, 1:1 model. How it is done: The reaction signals were detected in real time using a Biacore instrument (Cytiva, BiacoreT200), and then an association-dissociation curve was obtained. After the completion of dissociation in each cycle, the biochip was regenerated with a regeneration solution for the next capture; the procedure was repeated until the affinity of the different antibodies for ST2 was determined. The acquired data were finally analyzed using the GE BIAevaluation software with a 1:1 (Langmuir) binding model to determine the association rate constants ka (kon) and the dissociation rate constants kd (koff), and the dissociation constants KD were given by KD = kd/ka. The determined affinity of the anti-ST2 antibody for human ST2 antigen (hST2-ECD-mFc), cynomolgus monkey ST2 antigen (Cyno-ST2-his, Sino biological, 90915-C08H) and the determined affinity of the anti-ST2 chimeric antibodies for ST2 were shown in Table 5.
as §1

B1: Humanized 31C8-1.1 (antibody, human IgG2, kappa, V domains shown)
VH: EVQLVQSGAEVKKPGATVKISCKASGYIFIDSEMHWVQQAPGKGLEWMGAIDPETGDTVYAEKFQGRVTITADKSSSTAYMELSSLRSEDTAVYYCTGSTTDYYFAYWGQGTLVTVSS
VL: DIQMTQSPSSLSASVGDRVTITCRSSKSLLHSNGIIYLYWYQQKPGKAPKLLIYQLSNLASGVPSRFSSSGSGTDFTLTISSLQPEDFATYYCAQNLELPFTFGQGTKVEIKR
notes: also called hz31C8-1.1; hz31C81-1.1
With B1, in experiment [1], the “IC50, blocking of the IL33/ST2 signaling (NFκB luciferase reporter, HEK293T-hST2-NFκB-Luciferase cells)” value turned out to be 15.9 nM and the “IC50, blocking of the IL33/ST2 signaling (NFκB luciferase reporter, KU812-NFκB-Luciferase cells naturally expressing hST2, 200 pM hIL33)” value came to 0.008 nM. Also, in experiment [2], the midpoint of the response, the EC50, lay at 0.384 nM. Further, in experiment [3], the Kd came out at 2.47 nM.

B2: Humanized 31C8-1.2 (antibody, human IgG2, kappa, V domains shown)
VH: QVQLVQSGAKVKKPGATVKISCKASGYIFIDSEMHWVQQAPGKGLEWMGAIDPETGDTVYAKKFKGRVTITADKSSSTAYMELSSLRSEDTAVYYCTGSTTDYYFAYWGQGTLVTVSS
VL: DIQMTQSPSSLSASVGDRVTITCRSSKSLLHSNGIIYLYWYQQKPGKAPKLLIYQLSNLASGVPSRFSSSGSGTDFTLTISSLQPEDFATYYCAQNLELPFTFGQGTKVEIKR
notes: also called hz31C8-1.2; hz31C81-1.2
B2: in experiment [1], the “IC50, blocking of the IL33/ST2 signaling (NFκB luciferase reporter, HEK293T-hST2-NFκB-Luciferase cells)” value was 20.4 nM and the “IC50, blocking of the IL33/ST2 signaling (NFκB luciferase reporter, KU812-NFκB-Luciferase cells naturally expressing hST2, 200 pM hIL33)” value was 0.006 nM. In addition, in experiment [2], the EC50 was 0.468 nM. In experiment [3], this molecule came in with a Kd of 5.27 nM.

B3: GSK3772847 (antibody STLM208 in CN104411333, prepared in-house) (antibody, human IgG2, kappa, V domains shown)
VH: EVQLLESGGGLVQPGGSLRLSCAASGFTFSIYDMIWVRQAPGKGLEWVSSIRGEGGGTYYADSVKGRFTISRDNSKNTLYLQMNSLRAEDTAVYYCARDPWSTEGSFFVLDYWGQGTLVTVSS
VL: EIVLTQSPATLSLSPGERATLSCRASQSVDDDLAWYQQKPGQAPRLLIYDASNRATGIPARFSGSGSGTDFTLTISSLEPEDFAVYYCQQYITAPLTFGQGTKVEIKR
notes: Control anti-ST2 antibody
As to B3, in experiment [1], the “IC50, blocking of the IL33/ST2 signaling (NFκB luciferase reporter, HEK293T-hST2-NFκB-Luciferase cells)” value is 29.2 nM and the “IC50, blocking of the IL33/ST2 signaling (NFκB luciferase reporter, KU812-NFκB-Luciferase cells naturally expressing hST2, 200 pM hIL33)” value was determined as 0.111 nM. This molecule also showed an EC50 in experiment [2] of 0.676 nM. Binding in experiment [3] was put at a Kd of 0.0923 nM.

B4: RG6149 (antibody Ab2 in CN104334582, prepared in-house) (antibody, human IgG2, kappa, V domains shown)
VH: EVQLVQSGAEVKKPGESLKISCKGSGYSFTNYWIGWVRQMPGKGLEWMGIIYPGNSDTRFSPSFQGQVTISADKSITTAYLQWSSLKASDTAMYYCARHGTSSDYYGLDVWGQGTTVTVSS
VL: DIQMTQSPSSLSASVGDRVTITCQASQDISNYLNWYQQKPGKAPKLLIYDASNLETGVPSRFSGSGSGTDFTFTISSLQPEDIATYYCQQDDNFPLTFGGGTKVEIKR
notes: Control anti-ST2 antibody
On to B4, for which, in experiment [1], the “IC50, blocking of the IL33/ST2 signaling (NFκB luciferase reporter, HEK293T-hST2-NFκB-Luciferase cells)” value was 84.3 nM and the “IC50, blocking of the IL33/ST2 signaling (NFκB luciferase reporter, KU812-NFκB-Luciferase cells naturally expressing hST2, 200 pM hIL33)” value was determined as 0.047 nM. In experiment [2], this molecule yielded an EC50 of 0.581 nM. In experiment [3], this molecule registered a Kd of 0.069 nM.

B5: Chimeric 31C8 (antibody, human IgG2, kappa, V domains shown)
VH: QVQLQQSGPELVRPGASVTLSCKASGYIFIDSEMHWVKQTPVHGLEWIGAIDPETGDTVYNQKFKGKATLTADKSSSTASMELSSLTSEDSAVYYCTGSTTDYYFAYWGQGTTLTVSS
VL: DIVMTQAAFSNPVTLGTSASISCRSSKSLLHSNGIIYLYWYLQKPGQSPQLLIYQMSNLASGVPDRFSSSGSGTDFTLRISRVEAEDVGVYYCAQNLELPFTFGSGTKLEIKR
notes: also called xi31C8
Take B5: in experiment [1], the “IC50, blocking of the IL33/ST2 signaling (NFκB luciferase reporter, HEK293T-hST2-NFκB-Luciferase cells)” value was 15.6 nM and the “IC50, blocking of the IL33/ST2 signaling (NFκB luciferase reporter, KU812-NFκB-Luciferase cells naturally expressing hST2, 200 pM hIL33)” value was found to be 0.016 nM. This molecule gave an EC50 in experiment [2] of 0.405 nM. Further, in experiment [3], the Kd turned out to be 1.62 nM.
